Experimental findings from US20140106982A1 are described below.

For one test, the target named is mAb 2H1. In words: VLP library affinity selection on 2H1, clones sequenced.
Consider DTQCQF (peptide), for which the copies among sequenced affinity-selected clones worked out at 17 copies.
Regarding WDATLQPA (peptide), the copies among sequenced affinity-selected clones came to 2 copies.
On the same count and under the same terms, with WTADLQPE (peptide) the figure was 1 copy.

The target of a further test is 2C7 antibody. Put plainly: VLP library affinity selection on 2C7, clones sequenced.
On to ELWRGT (peptide), for which the copies among sequenced affinity-selected clones was 2 copies.
The substance LDYEGN (peptide) returned a copies among sequenced affinity-selected clones of 1 copy.
Substance LDYERI (peptide) displayed a copies among sequenced affinity-selected clones of 3 copies.
Still for that read-out and setting: with LDYMRT (peptide) the figure was 4 copies; with LDYQRV (peptide), 7 copies; with PLWKGN (peptide), 1 copy.
Same read-out and setting: the same measure for PLWRGT (peptide): 1 copy; for VDYERI (peptide): 2 copies.
